Assay results reported in US20210246166A1 (Bayer, published 2021).
Numbered stars: 1 amine (or outer) side, 2 acyl side, 3 side chain; on linkers, the order of the positions; unused ones are H or OH. Bridge positions count the residues as written; N and C are the ends. Square brackets hold non-standard residues; d marks the D form. Ends that are not written are not given here. X17 = 2‑((1S,2S)-1-(Amino)-2-methylbutyl)‑1,3‑oxazole‑4‑carboxylic acid, CC[C@H](C)[C@H](N[*:1])c1nc(C(=O)[*:2])co1; Pro(4-spirocPr) = O=C(O)[C@@H]1CC2(CC2)CN1; Oic = O=C(O)[C@@H]1C[C@@H]2CCCC[C@@H]2N1; tBuAla = CC(C)(C)C[C@H](N)C(=O)O; Pen = CC(C)(S)[C@H](N)C(=O)O; NMeC = CN[C@@H](CS)C(=O)O; Orn = NCCC[C@H](N)C(=O)O

T1: recombinant rat MASP1 active protease (amino acids 302-704, C-terminal His Tag) (rat, UniProt Q8CHN8 302-704)
T1 sequence: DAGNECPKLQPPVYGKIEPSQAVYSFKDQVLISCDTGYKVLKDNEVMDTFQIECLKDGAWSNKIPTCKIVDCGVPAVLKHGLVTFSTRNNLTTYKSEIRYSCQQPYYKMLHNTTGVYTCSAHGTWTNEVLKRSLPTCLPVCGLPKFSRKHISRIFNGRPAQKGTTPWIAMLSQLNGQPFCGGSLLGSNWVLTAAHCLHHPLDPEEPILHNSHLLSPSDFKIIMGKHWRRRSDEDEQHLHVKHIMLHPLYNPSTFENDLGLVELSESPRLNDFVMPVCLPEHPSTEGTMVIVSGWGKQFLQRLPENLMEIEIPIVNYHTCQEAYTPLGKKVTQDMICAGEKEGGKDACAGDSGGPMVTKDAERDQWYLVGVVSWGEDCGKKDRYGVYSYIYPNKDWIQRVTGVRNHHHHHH


Target: T1, recombinant rat MASP1 active protease …
Assay: cell-based or functional assay

Binder | rat MASP1 IC50 [nM]
[Orn]ICSRS[tBuAla]PPI[Pen]IPD-OH (disulfide 3-11; N-terminus assumed; SMILES CC[C@H](C)[C@H](NC(=O)[C@@H](N)CCCN)C(=O)N[C@H]1CSSC(C)(C)[C@@H](C(=O)N[C@H](C(=O)N2CCC[C@H]2C(=O)N[C@@H](CC(=O)O)C(=O)O)[C@@H](C)CC)NC(=O)[C@H]([C@@H](C)CC)NC(=O)[C@@H]2CCCN2C(=O)[C@@H]2CCCN2C(=O)[C@H](CC(C)(C)C)NC(=O)[C@H](CO)NC(=O)[C@H](CCCNC(=N)N)NC(=O)[C@H](CO)NC1=O) [Example 18: (Orn)-IC+SRS-((tBu)A)-PPI-(Pen)+IPD-OH] | 26
AICSRSLP[Pro(4-spirocPr)]I[Pen]IPD-NH2 (disulfide 3-11; N-terminus assumed; SMILES CC[C@H](C)[C@H](NC(=O)[C@H](C)N)C(=O)N[C@H]1CSSC(C)(C)[C@@H](C(=O)N[C@H](C(=O)N2CCC[C@H]2C(=O)N[C@@H](CC(=O)O)C(N)=O)[C@@H](C)CC)NC(=O)[C@H]([C@@H](C)CC)NC(=O)[C@@H]2CC3(CC3)CN2C(=O)[C@@H]2CCCN2C(=O)[C@H](CC(C)C)NC(=O)[C@H](CO)NC(=O)[C@H](CCCNC(=N)N)NC(=O)[C@H](CO)NC1=O) [Example 17: AIC+SRSLP-((6S)-5-Azaspiro[2.4]heptane-6-carboxylic acid)-I-(Pen)+IPD-NH2] | 31
RICSRS[tBuAla]PPI[NMeC]I-NH2 (disulfide 3-11; N-terminus assumed; SMILES CC[C@H](C)[C@H](NC(=O)[C@@H]1CSSC[C@H](NC(=O)[C@@H](NC(=O)[C@@H](N)CCCNC(=N)N)[C@@H](C)CC)C(=O)N[C@@H](CO)C(=O)N[C@@H](CCCNC(=N)N)C(=O)N[C@@H](CO)C(=O)N[C@@H](CC(C)(C)C)C(=O)N2CCC[C@H]2C(=O)N2CCC[C@H]2C(=O)N[C@@H]([C@@H](C)CC)C(=O)N1C)C(N)=O) [Example 38: RIC+SRS-((tBu)A)-PPI-((N-Me)C)+I-NH2] | 12
AICSRS[tBuAla]PPICI-NH2 (disulfide 3-11; N-terminus assumed; SMILES CC[C@H](C)[C@H](NC(=O)[C@@H]1CSSC[C@H](NC(=O)[C@@H](NC(=O)[C@H](C)N)[C@@H](C)CC)C(=O)N[C@@H](CO)C(=O)N[C@@H](CCCNC(=N)N)C(=O)N[C@@H](CO)C(=O)N[C@@H](CC(C)(C)C)C(=O)N2CCC[C@H]2C(=O)N2CCC[C@H]2C(=O)N[C@@H]([C@@H](C)CC)C(=O)N1)C(N)=O) [Example 37: AIC+SRS-((tBu)A)-PPIC+I-NH2] | 140
AICSRSLP[Pro(4-spirocPr)]I[Pen]IPD-OH (disulfide 3-11; N-terminus assumed; SMILES CC[C@H](C)[C@H](NC(=O)[C@H](C)N)C(=O)N[C@H]1CSSC(C)(C)[C@@H](C(=O)N[C@H](C(=O)N2CCC[C@H]2C(=O)N[C@@H](CC(=O)O)C(=O)O)[C@@H](C)CC)NC(=O)[C@H]([C@@H](C)CC)NC(=O)[C@@H]2CC3(CC3)CN2C(=O)[C@@H]2CCCN2C(=O)[C@H](CC(C)C)NC(=O)[C@H](CO)NC(=O)[C@H](CCCNC(=N)N)NC(=O)[C@H](CO)NC1=O) [Example 36: AIC+SRSLP-((6S)-5-Azaspiro[2.4]heptane-6-carboxylic acid)-I-(Pen)+IPD-OH] | 24
[Orn]ICSRS[tBuAla]PPI[Pen]IPD-NH2 (disulfide 3-11; N-terminus assumed; SMILES CC[C@H](C)[C@H](NC(=O)[C@@H](N)CCCN)C(=O)N[C@H]1CSSC(C)(C)[C@@H](C(=O)N[C@H](C(=O)N2CCC[C@H]2C(=O)N[C@@H](CC(=O)O)C(N)=O)[C@@H](C)CC)NC(=O)[C@H]([C@@H](C)CC)NC(=O)[C@@H]2CCCN2C(=O)[C@@H]2CCCN2C(=O)[C@H](CC(C)(C)C)NC(=O)[C@H](CO)NC(=O)[C@H](CCCNC(=N)N)NC(=O)[C@H](CO)NC1=O) [Example 49: (Orn)-IC+SRS-((tBu)A)-PPI-(Pen)+IPD-NH2] | 60
RICSRS[tBuAla]PPI[NMeC]IPD-NH2 (disulfide 3-11; N-terminus assumed; SMILES CC[C@H](C)[C@H](NC(=O)[C@@H](N)CCCNC(=N)N)C(=O)N[C@H]1CSSC[C@@H](C(=O)N[C@H](C(=O)N2CCC[C@H]2C(=O)N[C@@H](CC(=O)O)C(N)=O)[C@@H](C)CC)N(C)C(=O)[C@H]([C@@H](C)CC)NC(=O)[C@@H]2CCCN2C(=O)[C@@H]2CCCN2C(=O)[C@H](CC(C)(C)C)NC(=O)[C@H](CO)NC(=O)[C@H](CCCNC(=N)N)NC(=O)[C@H](CO)NC1=O) [Example 19: RIC+SRS-((tBu)A)-PPI-((N-Me)C)+IPD-NH2] | 23
AICSRS[tBuAla]P[Pro(4-spirocPr)]I[Pen]IPD-NH2 (disulfide 3-11; N-terminus assumed; SMILES CC[C@H](C)[C@H](NC(=O)[C@H](C)N)C(=O)N[C@H]1CSSC(C)(C)[C@@H](C(=O)N[C@H](C(=O)N2CCC[C@H]2C(=O)N[C@@H](CC(=O)O)C(N)=O)[C@@H](C)CC)NC(=O)[C@H]([C@@H](C)CC)NC(=O)[C@@H]2CC3(CC3)CN2C(=O)[C@@H]2CCCN2C(=O)[C@H](CC(C)(C)C)NC(=O)[C@H](CO)NC(=O)[C@H](CCCNC(=N)N)NC(=O)[C@H](CO)NC1=O) [Example 45: AIC+SRS-((tBu)A)-P-((6S)-5-Azaspiro[2.4]heptane-6-carboxylic acid)-I-(Pen)+IPD-NH2] | 40
AICSRS[tBuAla]P[Oic]I[Pen]IPD-OH (disulfide 3-11; N-terminus assumed; SMILES CC[C@H](C)[C@H](NC(=O)[C@H](C)N)C(=O)N[C@H]1CSSC(C)(C)[C@@H](C(=O)N[C@H](C(=O)N2CCC[C@H]2C(=O)N[C@@H](CC(=O)O)C(=O)O)[C@@H](C)CC)NC(=O)[C@H]([C@@H](C)CC)NC(=O)[C@@H]2C[C@@H]3CCCC[C@@H]3N2C(=O)[C@@H]2CCCN2C(=O)[C@H](CC(C)(C)C)NC(=O)[C@H](CO)NC(=O)[C@H](CCCNC(=N)N)NC(=O)[C@H](CO)NC1=O) [Example 14: AIC+SRS-((tBu)A)-P-(Oic)-I-(Pen)+IPD-OH] | 23
AICSRS[tBuAla]P[Pro(4-spirocPr)]I[Pen]IPD-OH (disulfide 3-11; N-terminus assumed; SMILES CC[C@H](C)[C@H](NC(=O)[C@H](C)N)C(=O)N[C@H]1CSSC(C)(C)[C@@H](C(=O)N[C@H](C(=O)N2CCC[C@H]2C(=O)N[C@@H](CC(=O)O)C(=O)O)[C@@H](C)CC)NC(=O)[C@H]([C@@H](C)CC)NC(=O)[C@@H]2CC3(CC3)CN2C(=O)[C@@H]2CCCN2C(=O)[C@H](CC(C)(C)C)NC(=O)[C@H](CO)NC(=O)[C@H](CCCNC(=N)N)NC(=O)[C@H](CO)NC1=O) [Example 31: AIC+SRS-((tBu)A)-P-((6S)-5-Azaspiro[2.4]heptane-6-carboxylic acid)-I-(Pen)+IPD-OH] | 22
KICSRS[tBuAla]PPI[NMeC]IPD-NH2 (disulfide 3-11; N-terminus assumed; SMILES CC[C@H](C)[C@H](NC(=O)[C@@H](N)CCCCN)C(=O)N[C@H]1CSSC[C@@H](C(=O)N[C@H](C(=O)N2CCC[C@H]2C(=O)N[C@@H](CC(=O)O)C(N)=O)[C@@H](C)CC)N(C)C(=O)[C@H]([C@@H](C)CC)NC(=O)[C@@H]2CCCN2C(=O)[C@@H]2CCCN2C(=O)[C@H](CC(C)(C)C)NC(=O)[C@H](CO)NC(=O)[C@H](CCCNC(=N)N)NC(=O)[C@H](CO)NC1=O) [Example 35: KIC+SRS-((tBu)A)-PPI-((N-Me)C)+IPD-NH2] | 46
AICSRS[tBuAla]PPI[NMeC]IPD-NH2 (disulfide 3-11; N-terminus assumed; SMILES CC[C@H](C)[C@H](NC(=O)[C@H](C)N)C(=O)N[C@H]1CSSC[C@@H](C(=O)N[C@H](C(=O)N2CCC[C@H]2C(=O)N[C@@H](CC(=O)O)C(N)=O)[C@@H](C)CC)N(C)C(=O)[C@H]([C@@H](C)CC)NC(=O)[C@@H]2CCCN2C(=O)[C@@H]2CCCN2C(=O)[C@H](CC(C)(C)C)NC(=O)[C@H](CO)NC(=O)[C@H](CCCNC(=N)N)NC(=O)[C@H](CO)NC1=O) [Example 48: AIC+SRS-((tBu)A)-PPI-((N-Me)C)+IPD-NH2] | 51.5
AICSRS[tBuAla]PPI[Pen]IPD-OH (disulfide 3-11; N-terminus assumed; SMILES CC[C@H](C)[C@H](NC(=O)[C@H](C)N)C(=O)N[C@H]1CSSC(C)(C)[C@@H](C(=O)N[C@H](C(=O)N2CCC[C@H]2C(=O)N[C@@H](CC(=O)O)C(=O)O)[C@@H](C)CC)NC(=O)[C@H]([C@@H](C)CC)NC(=O)[C@@H]2CCCN2C(=O)[C@@H]2CCCN2C(=O)[C@H](CC(C)(C)C)NC(=O)[C@H](CO)NC(=O)[C@H](CCCNC(=N)N)NC(=O)[C@H](CO)NC1=O) [Example 12: AIC+SRS-((tBu)A)-PPI-(Pen)+IPD-OH] | 13
AICSRS[tBuAla]PPI[NMeC][X17]D-NH2 (disulfide 3-11; N-terminus assumed; SMILES CC[C@H](C)[C@H](NC(=O)[C@H](C)N)C(=O)N[C@H]1CSSC[C@@H](C(=O)N[C@H](c2nc(C(=O)N[C@@H](CC(=O)O)C(N)=O)co2)[C@@H](C)CC)N(C)C(=O)[C@H]([C@@H](C)CC)NC(=O)[C@@H]2CCCN2C(=O)[C@@H]2CCCN2C(=O)[C@H](CC(C)(C)C)NC(=O)[C@H](CO)NC(=O)[C@H](CCCNC(=N)N)NC(=O)[C@H](CO)NC1=O) | 13
AICSRS[tBuAla]PPI[NMeC]IPD-NH2 (disulfide 3-11; also: HCl salt) [Example 30: AIC+SRS-((tBu)A)-PPI-((N-Me)C)+IPD-NH2 (HCl salt)] | 28
